Measurements reported in patent US6410248.

Target: Zif268 zinc fingers 1-3 (wild type) (UniProt P08046 SEQ:1-90)
Experiment: EMSA; 15 mM Hepes-NaOH pH 7.9, 50 mM KCl, 50 mM K glutamate, 50 mM K acetate, 5 mM MgCl2, 20 uM ZnSO4, no competitor DNA

B1: Zif268 site (dsDNA)
DNA 1: CCAGTAGCGGGGGCGTCCTCG
DNA 2: CGAGGACGCCCCCGCTACTGG
Kd: 0.01 nM
